Assay results as given in patent US20200317768A1 (published 2020).
Residue numbers refer to the chain shown, from its start. Numbers in names are those of the source.

Key:
[1] = target: T1, cynomolgus monkey FcγRIIa1 extracellular domain, C-terminal His-tag (cynomolgus monkey); test: SPR; FcgR bound per captured antibody, normalized to SG1
T1 construct: also called cyno FcγRIIa1; FcgRIIa1
T1 chain: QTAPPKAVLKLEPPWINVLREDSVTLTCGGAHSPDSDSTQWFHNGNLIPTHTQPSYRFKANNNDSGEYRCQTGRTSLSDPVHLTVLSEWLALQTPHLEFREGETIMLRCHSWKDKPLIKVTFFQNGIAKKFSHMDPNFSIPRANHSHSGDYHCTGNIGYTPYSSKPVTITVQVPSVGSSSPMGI
Method: (§1) The kinetic analysis of interactions between these antibodies and FcγR was carried out using BIACORE® T200 or BIACORE® 4000 (GE Healthcare). HBS-EP+ (GE Healthcare) was used as the running buffer, and the measurement temperature was set to 25° C. A chip produced by immobilizing Protein A. Protein A/G or mouse anti-human IgG kappa light chain (BD Biosciences) onto a Series S Sensor Chip CM4 or CM5 (GE Healthcare) by the amine-coupling method was used. […] After the measurement, the antibody captured on the chip was washed off by allowing reaction with 10 mM glycine-HCl, pH1.5 and 25 mM NaOH so that the chip was regenerated and used repeatedly. The sensorgrams obtained as measurement results were analyzed by the 1:1 Langmuir binding model using the BIACORE® Evaluation Software to calculate the binding rate constant ka (L/mol/s) and dissociation rate constant kd (l/s), and the dissociation constant KD (mol/L) was calculated from these values. […] Regarding such interactions, KD values were calculated using the following 1:1 binding model described in BIACORE® T100 Software Handbook BR1006-48 Edition AE.
(§2) The value of the amount of FcγR binding was obtained by dividing the amount of FcγR bound by the amount of each antibody captured.

[2] = target: T2, cynomolgus monkey FcγRIIb extracellular domain, C-terminal His-tag (cynomolgus monkey); test: as above
T2 construct: also called cyno FcγRIIb; cynoFcγRIIb
T2 chain: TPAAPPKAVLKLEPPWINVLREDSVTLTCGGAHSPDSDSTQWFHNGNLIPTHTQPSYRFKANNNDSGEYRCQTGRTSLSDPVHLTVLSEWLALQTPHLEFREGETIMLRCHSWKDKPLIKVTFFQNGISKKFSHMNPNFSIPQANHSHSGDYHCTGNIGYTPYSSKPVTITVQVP
Method: as §1, §2

[3] = target: T3, cynomolgus monkey FcγRIIa3 extracellular domain, C-terminal His-tag (cynomolgus monkey); test: as above
T3 construct: also called cyno FcγRIIa3; FcgRIIa3
T3 chain: T1 chain with P95T, T121A, A128S, H133P, D135N
Method: as §1, §2

[4] = target: T4, cynomolgus monkey FcγRIIa2 extracellular domain, C-terminal His-tag (cynomolgus monkey); test: as above
T4 construct: also called cyno FcγRIIa2; FcgRIIa2
T4 chain: T1 chain with P95T, T121A, I127K, A128S, K130N, D135N, R142Q
Method: as §1, §2

[5] = target: T5, cynomolgus monkey FcγRIIIaS extracellular domain, C-terminal His-tag (cynomolgus monkey, UniProt Q8SPW2 21-206 at identity 1.00)); test: as above
T5 construct: also called cyno FcγRIIIaS; FcgRIIIaS
T5 chain: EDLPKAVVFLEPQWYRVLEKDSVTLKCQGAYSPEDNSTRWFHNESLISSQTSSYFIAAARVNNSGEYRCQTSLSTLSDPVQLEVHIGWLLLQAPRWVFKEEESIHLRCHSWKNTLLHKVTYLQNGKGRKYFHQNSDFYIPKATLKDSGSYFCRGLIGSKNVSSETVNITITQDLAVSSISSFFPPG
Method: as §1, §2

[6] = target: T6, human FcγRIIb extracellular domain, C-terminal His-tag (human, UniProt P31994 43-217); test: SPR (BIACORE); KD of SG1 / KD of variant;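 further: relative to parent M103205H795-SG1 carrying the SG1 human heavy chain constant region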
T6 construct: also called humanFcgRIIb; not shown: His-tag added to C-terminus
T6 sequence: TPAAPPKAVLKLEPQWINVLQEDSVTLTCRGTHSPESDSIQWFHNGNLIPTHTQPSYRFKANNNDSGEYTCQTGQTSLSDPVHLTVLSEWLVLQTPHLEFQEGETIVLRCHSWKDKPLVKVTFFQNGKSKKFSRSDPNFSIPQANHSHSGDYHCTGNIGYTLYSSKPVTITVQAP
Method: as §1
(§3) The behavior of interacting molecules according to the 1:1 binding model on BIACORE® can be described by Equation 1: Req=C·R max/(KD+C)+RI, wherein, Req is a plot of steady-state binding levels to analyte concentration. C is concentration, RI is bulk refractive index contribution in the sample, and Rmax is analyte binding capacity of the surface. When this equation is rearranged, KD can be expressed as Equation 2: KD=C·Rmax/(Req−RI)−C. KD can be calculated by substituting the values of Rmax, RI, and C into Equation 1 or Equation 2. From the current measurement conditions, RI=0, C=2 μmol/L can be used.

[7] = target: T7, cynomolgus monkey FcγRIIIaS extracellular domain, C-terminal His-tag (cynomolgus monkey, UniProt A3RFZ7 21-206 (rhesus entry)); test: SPR (BIACORE); KD of SG1 / KD of variant;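 further: relative to parent M103205H795-SG1 carrying the SG1 human heavy chain constant region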
T7 construct: also called cyno FcγRIIIaS; cynoFcγRIIIaS; not shown: His-tag added to C-terminus
Method: as §1, §3

[8] = target: T8, human FcγRIIaH extracellular domain, C-terminal His-tag (human, UniProt P12318 34-217); test: SPR (BIACORE); KD of SG1 / KD of variant;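 further: relative to parent M103205H795-SG1 carrying the SG1 human heavy chain constant region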
T8 construct: also called human FcγRIIa (type H); FcgRIIaH; not shown: His-tag added to C-terminus
T8 sequence: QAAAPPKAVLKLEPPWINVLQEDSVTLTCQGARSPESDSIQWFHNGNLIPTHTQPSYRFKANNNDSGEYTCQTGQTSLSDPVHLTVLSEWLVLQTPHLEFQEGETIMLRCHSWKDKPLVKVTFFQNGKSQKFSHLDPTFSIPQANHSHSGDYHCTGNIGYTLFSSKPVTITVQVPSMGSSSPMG
Method: as §1, §3

[9] = target: T9, cynomolgus monkey FcγRIIb extracellular domain, C-terminal His-tag (cynomolgus monkey); test: SPR (BIACORE); KD of SG1 / KD of variant;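 further: relative to parent M103205H795-SG1 carrying the SG1 human heavy chain constant region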
T9 construct: also called cyno FcγRIIb; cynoFcγRIIb; not shown: His-tag added to C-terminus
T9 chain: T2 chain
Method: as §1, §3

[10] = target: T10, human FcγRIIIaV extracellular domain, C-terminal His-tag (human, UniProt P08637 17-208); test: SPR (BIACORE); KD of SG1 / KD of variant
T10 construct: also called FcgRIIIaV; not shown: His-tag added to C-terminus
T10 sequence (P08637 17-208 F176V): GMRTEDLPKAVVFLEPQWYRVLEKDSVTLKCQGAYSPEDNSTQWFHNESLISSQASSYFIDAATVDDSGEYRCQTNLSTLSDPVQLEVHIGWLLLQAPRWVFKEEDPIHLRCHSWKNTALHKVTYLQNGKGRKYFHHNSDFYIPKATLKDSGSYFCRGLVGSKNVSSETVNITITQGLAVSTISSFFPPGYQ
Method: as §1, §3

[11] = target: T11, cynomolgus monkey FcγRIIa3 extracellular domain, C-terminal His-tag (cynomolgus monkey); test: SPR (BIACORE); KD of SG1 / KD of variant
T11 construct: also called cyno FcγRIIa3; cynoFcgRIIa3; not shown: His-tag added to C-terminus
T11 chain: T1 chain with P95T, T121A, A128S, H133P, D135N
Method: as §1, §3

[12] = target: T12, cynomolgus monkey FcγRIIa2 extracellular domain, C-terminal His-tag (cynomolgus monkey); test: SPR (BIACORE); KD of SG1 / KD of variant
T12 construct: also called cyno FcγRIIa2; cynoFcgRIIa2; not shown: His-tag added to C-terminus
T12 chain: T1 chain with P95T, T121A, I127K, A128S, K130N, D135N, R142Q
Method: as §1, §3

[13] = target: T13, cynomolgus monkey FcγRIIa1 extracellular domain, C-terminal His-tag (cynomolgus monkey); test: SPR (BIACORE); KD of SG1 / KD of variant
T13 construct: also called cyno FcγRIIa1; cynoFcgRIIa1; not shown: His-tag added to C-terminus
T13 chain: T1 chain
Method: as §1, §3

[14] = target: T14, human FcγRIIaR extracellular domain, C-terminal His-tag (human, UniProt P12318 34-217); test: SPR (BIACORE); KD of SG1 / KD of variant
T14 construct: also called human FcγRIIa (type R); FcgRIIaR; not shown: His-tag added to C-terminus
T14 chain: T8 sequence with H134R
Method: as §1, §3

B1: M103205H795-SG178/M103202L889-SK1 (antibody, human IgG1, kappa)
heavy: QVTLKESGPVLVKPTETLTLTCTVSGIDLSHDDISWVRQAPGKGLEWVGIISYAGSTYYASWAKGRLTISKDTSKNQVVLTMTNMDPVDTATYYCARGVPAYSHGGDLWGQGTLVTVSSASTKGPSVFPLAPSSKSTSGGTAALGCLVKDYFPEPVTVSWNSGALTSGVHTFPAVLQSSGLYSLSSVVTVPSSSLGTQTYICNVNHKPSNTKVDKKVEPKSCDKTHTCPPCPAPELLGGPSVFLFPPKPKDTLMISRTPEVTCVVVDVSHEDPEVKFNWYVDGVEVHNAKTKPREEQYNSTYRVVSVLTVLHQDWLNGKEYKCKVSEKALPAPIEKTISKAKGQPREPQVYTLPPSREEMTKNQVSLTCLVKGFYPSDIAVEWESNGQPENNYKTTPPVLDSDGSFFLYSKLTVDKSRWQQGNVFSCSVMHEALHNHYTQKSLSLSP
light: DIVMTQSPATLSLSPGERATLSCTSSQSVYHANWLSWFQQKPGQPPKLLIYWASTLAYGVPSRFSGSGSGTDFTLTISSLQPEDAATYYCAGGYGGGRYAFGQGTKVEIKRTVAAPSVFIFPPSDEQLKSGTASVVCLLNNFYPREAKVQWKVDNALQSGNSQESVTEQDSKDSTYSLSSTLTLSKADYEKHKVYACEVTHQGLSSPVTKSFNRGEC
notes: also called N325E
amount of FcgR binding (SG1 = 100) [1]: 22 SG1 = 100
amount of FcgR binding (SG1 = 100) [2]: 26 SG1 = 100
amount of FcgR binding (SG1 = 100) [3]: 29 SG1 = 100
amount of FcgR binding (SG1 = 100) [4]: 21 SG1 = 100
amount of FcgR binding (SG1 = 100) [5]: 36 SG1 = 100

B2: M103205H795-SG179/M103202L889-SK1 (antibody, human IgG1, kappa)
heavy: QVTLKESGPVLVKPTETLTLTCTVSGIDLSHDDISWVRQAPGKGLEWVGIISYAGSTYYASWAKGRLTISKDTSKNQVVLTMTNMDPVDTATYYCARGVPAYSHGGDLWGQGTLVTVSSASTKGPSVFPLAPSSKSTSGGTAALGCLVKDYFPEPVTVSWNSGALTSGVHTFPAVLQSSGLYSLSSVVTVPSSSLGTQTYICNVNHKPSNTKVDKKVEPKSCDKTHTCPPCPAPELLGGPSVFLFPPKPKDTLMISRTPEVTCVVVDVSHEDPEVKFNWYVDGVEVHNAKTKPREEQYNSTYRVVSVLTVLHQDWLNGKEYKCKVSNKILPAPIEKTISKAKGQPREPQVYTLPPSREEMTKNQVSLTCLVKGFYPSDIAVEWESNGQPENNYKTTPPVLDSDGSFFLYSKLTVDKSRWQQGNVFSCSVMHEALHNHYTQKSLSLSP
light: B1 light
notes: also called A327I
amount of FcgR binding (SG1 = 100) [1]: 19 SG1 = 100
amount of FcgR binding (SG1 = 100) [2]: 19 SG1 = 100
amount of FcgR binding (SG1 = 100) [3]: 28 SG1 = 100
amount of FcgR binding (SG1 = 100) [4]: 17 SG1 = 100
amount of FcgR binding (SG1 = 100) [5]: 48 SG1 = 100

B3: M103205H795-MY535 / M103202L889-SK1 (antibody, human IgG1, kappa)
heavy: QVTLKESGPVLVKPTETLTLTCTVSGIDLSHDDISWVRQAPGKGLEWVGIISYAGSTYYASWAKGRLTISKDTSKNQVVLTMTNMDPVDTATYYCARGVPAYSHGGDLWGQGTLVTVSSASTKGPSVFPLAPSSKSTSGGTAALGCLVKDYFPEPVTVSWNSGALTSGVHTFPAVLQSSGLYSLSSVVTVPSSSLGTQTYICNVNHKPSNTKVDKKVEPKSCDKTHTCPPCPGPEWLTGPSVFLFPPKPKDTLMISRTPEVTCVVVDVSDEDPEVKFNWYVDGVEVHNAKTKPREEQYNSTYRVVSVLTVLHQDWLNGKEYKCKVSNKALPKPIEKTISKAKGQPREPQVYTLPPSREEMTKNQVSLTCLVKGFYPSDIAVEWESNGQPENNYKTTPPVLDSDGSFFLYSKLTVDKSRWQQGNVFSCSVMHEALHNHYTQKSLSLSP
light: B1 light
KD fold (SG1 = 1) [6]: 2.4 fold
KD fold (SG1 = 1) [7]: 0.17 fold
KD fold (SG1 = 1) [8]: 1.5 fold
KD fold (SG1 = 1) [9]: 4.4 fold
KD fold (SG1 = 1) [10]: 0.16 fold
KD fold (SG1 = 1) [11]: 5.7 fold
KD fold (SG1 = 1) [12]: 3.6 fold
KD fold (SG1 = 1) [13]: 2.1 fold
KD fold (SG1 = 1) [14]: 1.7 fold

B4: M103205H795-MY533 / M103202L889-SK1 (antibody, human IgG1, kappa)
heavy: B3 heavy with G233A, S241V, Q297L
light: B1 light
KD fold (SG1 = 1) [6]: 4.5 fold
KD fold (SG1 = 1) [7]: 0.33 fold
KD fold (SG1 = 1) [8]: 3.3 fold
KD fold (SG1 = 1) [9]: 7.2 fold
KD fold (SG1 = 1) [10]: 0.45 fold
KD fold (SG1 = 1) [11]: 14.2 fold
KD fold (SG1 = 1) [12]: 7 fold
KD fold (SG1 = 1) [13]: 4 fold
KD fold (SG1 = 1) [14]: 5.5 fold

B5: M103205H795-MY534 / M103202L889-SK1 (antibody, human IgG1, kappa)
heavy: B3 heavy with G233A, W236L, S241V, Q297L
light: B1 light
KD fold (SG1 = 1) [6]: 3.8 fold
KD fold (SG1 = 1) [7]: 0.22 fold
KD fold (SG1 = 1) [8]: 4.1 fold
KD fold (SG1 = 1) [9]: 4.3 fold
KD fold (SG1 = 1) [10]: 0.19 fold
KD fold (SG1 = 1) [11]: 14.2 fold
KD fold (SG1 = 1) [12]: 3.9 fold
KD fold (SG1 = 1) [13]: 2.5 fold
KD fold (SG1 = 1) [14]: 3.8 fold

B6: M103205H795-MY537 / M103202L889-SK1 (antibody, human IgG1, kappa)
heavy: B3 heavy with S241V, Q297L
light: B1 light
KD fold (SG1 = 1) [6]: 4.6 fold
KD fold (SG1 = 1) [7]: 0.24 fold
KD fold (SG1 = 1) [8]: 2.5 fold
KD fold (SG1 = 1) [9]: 3.6 fold
KD fold (SG1 = 1) [10]: 0.25 fold
KD fold (SG1 = 1) [11]: 12.1 fold
KD fold (SG1 = 1) [12]: 4.6 fold
KD fold (SG1 = 1) [13]: 2.7 fold
KD fold (SG1 = 1) [14]: 3 fold

B7: M103205H795-MY536 / M103202L889-SK1 (antibody, human IgG1, kappa)
heavy: B3 heavy with S241V
light: B1 light
KD fold (SG1 = 1) [6]: 4.6 fold
KD fold (SG1 = 1) [7]: 0.23 fold
KD fold (SG1 = 1) [8]: 2.4 fold
KD fold (SG1 = 1) [9]: 4.5 fold
KD fold (SG1 = 1) [10]: 0.3 fold
KD fold (SG1 = 1) [11]: 17.3 fold
KD fold (SG1 = 1) [12]: 4.6 fold
KD fold (SG1 = 1) [13]: 2.7 fold
KD fold (SG1 = 1) [14]: 5 fold
